Data on one substance can be found in publication PMC10530080.

In the experiment the target is recombinant human ATM, wild type (N-terminal FLAG-FKBP1A) (human) (UniProt Q13315).
UniProt Q13315, sequence (Q13315 whole entry): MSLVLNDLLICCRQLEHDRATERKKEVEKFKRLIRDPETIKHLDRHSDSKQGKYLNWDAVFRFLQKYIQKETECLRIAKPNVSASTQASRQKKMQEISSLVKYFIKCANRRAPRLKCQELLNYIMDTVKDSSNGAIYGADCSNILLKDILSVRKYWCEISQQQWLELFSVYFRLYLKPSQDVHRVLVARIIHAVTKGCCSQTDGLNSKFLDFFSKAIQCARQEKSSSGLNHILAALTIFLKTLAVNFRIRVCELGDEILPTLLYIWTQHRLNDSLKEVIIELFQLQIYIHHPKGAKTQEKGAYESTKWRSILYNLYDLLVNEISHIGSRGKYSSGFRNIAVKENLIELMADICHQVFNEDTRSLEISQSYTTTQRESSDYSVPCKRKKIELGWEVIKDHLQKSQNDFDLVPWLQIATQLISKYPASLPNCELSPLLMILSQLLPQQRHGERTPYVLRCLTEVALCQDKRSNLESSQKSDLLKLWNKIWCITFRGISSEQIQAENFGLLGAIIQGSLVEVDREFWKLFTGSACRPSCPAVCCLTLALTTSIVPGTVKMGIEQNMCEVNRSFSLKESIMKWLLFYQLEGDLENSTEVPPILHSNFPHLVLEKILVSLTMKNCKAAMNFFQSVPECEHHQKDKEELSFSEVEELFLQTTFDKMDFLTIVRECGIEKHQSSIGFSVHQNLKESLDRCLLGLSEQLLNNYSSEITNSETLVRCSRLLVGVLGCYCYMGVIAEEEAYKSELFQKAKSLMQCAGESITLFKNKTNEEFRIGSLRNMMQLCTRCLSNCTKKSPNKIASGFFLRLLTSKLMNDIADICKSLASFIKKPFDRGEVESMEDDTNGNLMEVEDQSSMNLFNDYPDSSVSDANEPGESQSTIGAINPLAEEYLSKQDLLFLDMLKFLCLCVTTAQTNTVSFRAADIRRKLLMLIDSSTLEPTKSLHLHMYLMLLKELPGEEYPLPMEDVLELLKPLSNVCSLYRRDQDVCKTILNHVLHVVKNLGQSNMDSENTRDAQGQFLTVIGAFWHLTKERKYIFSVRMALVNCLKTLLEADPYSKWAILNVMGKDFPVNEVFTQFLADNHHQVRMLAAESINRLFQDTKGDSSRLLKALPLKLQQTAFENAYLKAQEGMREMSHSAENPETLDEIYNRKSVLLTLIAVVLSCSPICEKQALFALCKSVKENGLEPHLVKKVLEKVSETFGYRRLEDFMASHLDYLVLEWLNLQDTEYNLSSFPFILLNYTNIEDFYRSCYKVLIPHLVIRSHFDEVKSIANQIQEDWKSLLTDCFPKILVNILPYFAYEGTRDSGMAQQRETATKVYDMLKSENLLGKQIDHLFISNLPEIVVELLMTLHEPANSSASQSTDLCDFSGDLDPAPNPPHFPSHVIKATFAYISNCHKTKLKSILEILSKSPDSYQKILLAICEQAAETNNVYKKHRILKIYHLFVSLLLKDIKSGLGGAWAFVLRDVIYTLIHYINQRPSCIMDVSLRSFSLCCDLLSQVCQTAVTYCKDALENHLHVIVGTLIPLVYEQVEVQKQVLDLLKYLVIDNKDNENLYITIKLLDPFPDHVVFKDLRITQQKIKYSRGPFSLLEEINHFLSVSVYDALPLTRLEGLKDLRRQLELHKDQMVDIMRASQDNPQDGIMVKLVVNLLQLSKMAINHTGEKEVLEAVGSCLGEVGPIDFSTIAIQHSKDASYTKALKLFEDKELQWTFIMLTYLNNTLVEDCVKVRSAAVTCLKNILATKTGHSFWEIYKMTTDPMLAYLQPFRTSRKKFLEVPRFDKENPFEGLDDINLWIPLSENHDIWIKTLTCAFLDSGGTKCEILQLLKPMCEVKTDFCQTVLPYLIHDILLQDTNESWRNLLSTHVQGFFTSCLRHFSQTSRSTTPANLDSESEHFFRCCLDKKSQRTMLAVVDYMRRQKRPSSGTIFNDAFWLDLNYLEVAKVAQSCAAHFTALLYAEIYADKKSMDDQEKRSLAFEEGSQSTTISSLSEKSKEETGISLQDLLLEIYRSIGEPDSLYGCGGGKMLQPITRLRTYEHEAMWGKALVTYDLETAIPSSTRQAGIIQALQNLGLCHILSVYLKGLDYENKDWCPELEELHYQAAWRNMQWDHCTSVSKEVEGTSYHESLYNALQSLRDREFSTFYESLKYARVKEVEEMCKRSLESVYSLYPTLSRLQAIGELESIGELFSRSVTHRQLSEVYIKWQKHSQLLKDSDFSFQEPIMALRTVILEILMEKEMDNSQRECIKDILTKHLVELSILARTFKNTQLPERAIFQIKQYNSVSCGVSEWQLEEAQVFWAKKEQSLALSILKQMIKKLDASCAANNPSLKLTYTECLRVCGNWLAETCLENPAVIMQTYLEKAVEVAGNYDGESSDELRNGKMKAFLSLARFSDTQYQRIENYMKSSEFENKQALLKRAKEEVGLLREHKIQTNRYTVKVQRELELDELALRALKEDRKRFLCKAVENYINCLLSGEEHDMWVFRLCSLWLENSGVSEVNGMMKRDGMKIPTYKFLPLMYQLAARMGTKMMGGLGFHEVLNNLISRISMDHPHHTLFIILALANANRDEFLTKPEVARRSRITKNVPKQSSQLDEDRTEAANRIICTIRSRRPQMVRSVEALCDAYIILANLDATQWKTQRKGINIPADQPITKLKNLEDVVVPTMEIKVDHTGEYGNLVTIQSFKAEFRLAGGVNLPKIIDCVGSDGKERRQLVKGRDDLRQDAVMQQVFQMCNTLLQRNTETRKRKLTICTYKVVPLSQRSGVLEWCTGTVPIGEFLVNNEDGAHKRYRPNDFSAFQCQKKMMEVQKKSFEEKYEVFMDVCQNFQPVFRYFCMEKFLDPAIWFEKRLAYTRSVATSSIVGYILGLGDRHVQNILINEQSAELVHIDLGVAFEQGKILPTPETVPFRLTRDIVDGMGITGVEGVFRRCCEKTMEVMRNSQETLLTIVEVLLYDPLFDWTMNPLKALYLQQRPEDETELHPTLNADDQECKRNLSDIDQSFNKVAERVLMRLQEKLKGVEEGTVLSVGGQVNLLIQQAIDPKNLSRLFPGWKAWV

Take “His-MBP-TEV-p53(1-102) (from UniProt P04637 1-102) (domain or fragment)”: the KM for p53 substrate, ATM activated by H2O2 (Phos-tag gel kinase assay, Michaelis-Menten) stood at 29 µM; the KM for p53 substrate, basal conditions (Phos-tag gel kinase assay, Michaelis-Menten) worked out at 80 µM; the KM for p53 substrate, in the presence of MRN and 350-base pair dsDNA (Phos-tag gel kinase assay, Michaelis-Menten) stood at 24 µM.
